The values below are quoted from earlier work in paper PMC8431939.

The target in the series is CD112 (Homo sapiens) (UniProt Q92692). Nature of the series: SPR. (In general: Surface plasmon resonance follows binding to a sensor surface in real time, without labels.)
Sequence of UniProt Q92692 (Q92692 32-538): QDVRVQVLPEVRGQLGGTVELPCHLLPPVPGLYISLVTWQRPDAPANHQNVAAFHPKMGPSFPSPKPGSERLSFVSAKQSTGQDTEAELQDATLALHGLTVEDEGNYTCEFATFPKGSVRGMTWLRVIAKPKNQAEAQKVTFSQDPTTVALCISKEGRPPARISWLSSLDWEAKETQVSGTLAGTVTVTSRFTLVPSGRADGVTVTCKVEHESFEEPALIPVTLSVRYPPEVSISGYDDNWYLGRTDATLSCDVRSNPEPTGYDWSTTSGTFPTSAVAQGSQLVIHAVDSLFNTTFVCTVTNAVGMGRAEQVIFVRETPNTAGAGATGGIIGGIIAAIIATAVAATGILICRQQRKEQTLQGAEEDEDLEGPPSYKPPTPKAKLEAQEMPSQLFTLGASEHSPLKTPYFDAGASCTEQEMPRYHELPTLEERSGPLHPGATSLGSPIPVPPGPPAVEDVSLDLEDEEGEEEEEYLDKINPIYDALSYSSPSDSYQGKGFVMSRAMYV

What is called Kd is the constant that tells how readily two partners part at equilibrium. Turning to CD112R (from UniProt Q6DKI7), the Kd was 88 nM.
